Legend:
[1] = target: T1, N-acetyl-L-glutamate kinase from Synechocystis sp. PCC 6803 with an N-terminal His6 tag (Synechocystis sp. PCC 6803) (UniProt P73326)
T1 sequence: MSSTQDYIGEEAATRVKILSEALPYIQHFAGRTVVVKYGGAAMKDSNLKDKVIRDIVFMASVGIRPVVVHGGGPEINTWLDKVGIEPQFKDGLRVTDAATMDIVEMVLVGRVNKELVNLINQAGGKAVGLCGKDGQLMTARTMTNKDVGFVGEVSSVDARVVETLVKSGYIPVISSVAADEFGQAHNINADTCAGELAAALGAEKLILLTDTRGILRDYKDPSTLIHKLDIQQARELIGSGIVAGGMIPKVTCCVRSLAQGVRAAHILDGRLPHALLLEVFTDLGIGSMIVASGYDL

[2] = target: T1, N-acetyl-L-glutamate kinase from Synechocystis sp. PCC 6803 with an N-terminal His6 tag (Synechocystis sp. PCC 6803); remark: listed apart in the source

Sequence of PII protein from the red alga Porphyra purpurea with a C-terminal Strep-tag II (P51254 whole entry): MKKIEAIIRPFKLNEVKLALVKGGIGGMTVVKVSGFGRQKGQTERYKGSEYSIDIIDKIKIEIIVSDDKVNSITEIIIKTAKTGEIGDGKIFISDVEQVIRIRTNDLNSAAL

relief of ScNAGK from feedback inhibition by arginine: rise of the IC50 for arginine on addition of PpPII (free ScNAGK: IC50 6.2 µM), coupled NAGK assay, without glutamine [1]: 4 fold
catalytic efficiency (Kcat/Km) of ScNAGK in the coupled NAGK activity assay, PpPII-complexed (free ScNAGK: 0.55 × 10^3 s^−1M^−1); NAG varied at 10 mM ATP [2]: 2360 s^−1M^−1
Substance: PII protein from the red alga Porphyra purpurea with a C-terminal Strep-tag II (from UniProt P51254 1-112) (natural protein)

Source: publication PMC5768801, “The PII signaling protein from red algae represents an evolutionary link between cyanobacterial and Chloroplastida PII proteins” (Scientific Reports, 2018)
